Among the data in article PMC5417323 (Journal of Molecular Biology, 2017) are Kd values, retold here.

Non-standard residues stand in square brackets, D forms with d. Primed or numbered codes have the meaning given here. No end group written: not given here. *: point of attachment. FITC = O=C1OC2(c3ccc(O)cc3Oc3cc(O)ccc32)c2ccc(NC(=S)*)cc21; pY = N[C@@H](Cc1ccc(OP(=O)(O)O)cc1)C(=O)O; FITC′ = not defined here

In general, Kd refers to a measure of binding affinity in units of concentration. A lower Kd goes with tighter binding.

One test deals with Lck SH2 domain (UniProt P06239 118-231, biotin on the Avi-tag (yeast binding assay, pull-down)). The experiment in a line: fluorescence polarisation. In general terms: Polarisation of emitted light reports the rotation of a fluorescent probe.
Test [1] has as its target the eight SFK SH2 domains. The experiment in a line: fluorescence polarisation.

Chain of Lck SH2 domain (P06239 118-231): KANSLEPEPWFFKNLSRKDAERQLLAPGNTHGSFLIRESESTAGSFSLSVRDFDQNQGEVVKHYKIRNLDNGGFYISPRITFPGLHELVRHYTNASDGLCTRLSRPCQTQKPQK

For {FITC}-ADND[pY]IIPLPD [(FITC)-ADNDpYIIPLPD], the Kd with Lck SH2 domain worked out at 955 nM.

In test [1], EPQ[pY]EEIPIYLK-{FITC′} [EPQp…-(FITC)] showed a Kd of 310 to 675 nM.

In the test with Lck SH2 domain, {FITC}-TEGQ[pY]QPQPA [(FITC)-TEGQpYQPQPA] returned a Kd of 2200 nM.
